From PMC5945891, “Proteomics of Stored Red Blood Cell Membrane and Storage-Induced Microvesicles Reveals the Association of Flotillin-2 With Band 3 Complexes” (Frontiers in Physiology, 2018)

B1: band 3 (natural protein, human (endogenous in RBCs), UniProt P02730 1-911, looked up)
chain: MEELQDDYEDMMEENLEQEEYEDPDIPESQMEEPAAHDTEATATDYHTTSHPGTHKVYVELQELVMDEKNQELRWMEAARWVQLEENLGENGAWGRPHLSHLTFWSLLELRRVFTKGTVLLDLQETSLAGVANQLLDRFIFEDQIRPQDREELLRALLLKHSHAGELEALGGVKPAVLTRSGDPSQPLLPQHSSLETQLFCEQGDGGTEGHSPSGILEKIPPDSEATLVLVGRADFLEQPVLGFVRLQEAAELEAVELPVPIRFLFVLLGPEAPHIDYTQLGRAAATLMSERVFRIDAYMAQSRGELLHSLEGFLDCSLVLPPTDAPSEQALLSLVPVQRELLRRRYQSSPAKPDSSFYKGLDLNGGPDDPLQQTGQLFGGLVRDIRRRYPYYLSDITDAFSPQVLAAVIFIYFAALSPAITFGGLLGEKTRNQMGVSELLISTAVQGILFALLGAQPLLVVGFSGPLLVFEEAFFSFCETNGLEYIVGRVWIGFWLILLVVLVVAFEGSFLVRFISRYTQEIFSFLISLIFIYETFSKLIKIFQDHPLQKTYNYNVLMVPKPQGPLPNTALLSLVLMAGTFFFAMMLRKFKNSSYFPGKLRRVIGDFGVPISILIMVLVDFFIQDTYTQKLSVPDGFKVSNSSARGWVIHPLGLRSEFPIWMMFASALPALLVFILIFLESQITTLIVSKPERKMVKGSGFHLDLLLVVGMGGVAALFGMPWLSATTVRSVTHANALTVMGKASTPGAAAQIQEVKEQRISGLLVAVLVGLSILMEPILSRIPLAVLFGIFLYMGVTSLSGIQLFDRILLLFKPPKYHPDVPYVKRVKTWRMHLFTGIQIICLAVLWVVKSTPASLALPFVLILTVPLRRVLLPLIFRNVELQCLDADDAKATFDEEEGRDEYDEVAMPV
notes: band 3 anion transporter of the human red blood cell membrane; bait captured with the anti-band 3 antibodies BRIC 6 and BRIC 170; Captured as native 'band 3 complexes' with no distinction between ankyrin, junctional and free complexes; also called band 3 complexes; source: endogenous, membranes of stored human RBCs and storage-induced microvesicles, 1% deoxycholate extract

How the values were obtained:
[1] = molecular target: the molecule itself; experiment: SDS-PAGE; band around 220 kDa on Coomassie-stained SDS-PAGE of total membrane proteins and co-IP eluates from RBCs and MVs
[2] = molecular target: B1; experiment: co-IP; band 3 complexes captured from 1% deoxycholate extracts of storage-induced microvesicles (bags D-F; compared with RBCs of the same bags) on beads coated with BRIC 6 and BRIC 170; eluates analysed by western blot for flotillin-2, densitometry; settings: partners not purified
[3] = molecular target: B1; experiment: co-IP; band 3 complexes captured from 1% deoxycholate extracts of RBC membranes (short- and long-stored ECs, bags A-C) on beads coated with BRIC 6 and BRIC 170; eluates analysed by western blot (ADSL, α-adducin, flotillin-2), densitometry relative to Ponceau loading; settings: partners not purified

Row | Binder | stoichiometry N [1] | fold decrease of the amount in band 3 complexes, MVs against RBCs [2] [fold] | fold change of the amount in band 3 complexes, long-stored against short-stored ECs [3] [fold]
1 | B1 | 2 | – | –
2 | Flotillin-2 (natural protein, human (endogenous in RBCs), UniProt Q14254 1-428, looked up, flotillin-2, human, SwissProt Q14254; source: endogenous, membranes of stored human RBCs and storage-induced microvesicles, 1% deoxycholate extract) MGNCHTVGPNEALVVSGGCCGSDYKQYVFGGWAWAWWCISDTQRISLEIMTLQPRCEDVETAEGVALTVTGVAQVKIMTEKELLAVACEQFLGKNVQDIKNVVLQTLEGHLRSILGTLTVEQIYQDRDQFAKLVREVAAPDVGRMGIEILSFTIKDVYDKVDYLSSLGKTQTAVVQRDADIGVAEAERDAGIREAECKKEMLDVKFMADTKIADSKRAFELQKSAFSEEVNIKTAEAQLAYELQGAREQQKIRQEEIEIEVVQRKKQIAVEAQEILRTDKELIATVRRPAEAEAHRIQQIAEGEKVKQVLLAQAEAEKIRKIGEAEAAVIEAMGKAEAERMKLKAEAYQKYGDAAKMALVLEALPQIAAKIAAPLTKVDEIVVLSGDNSKVTSEVNRLLAELPASVHALTGVDLSKIPLIKKATGVQV | – | 1.3 | 1.6
